The results in this text go back to US20200079848A1 (Five Prime, published 2020).

Positions count from the first letter of the chain named. Numbers in names are those of the source.

The target in assay [1] is T1, hILT4-His-Avi tag (human, UniProt Q8N423 22-459).
T1 construct: also called monomeric human ILT4; extracellular region of hILT4 linked to a His-Avi tag
The assay is described as follows: SPR Biacore T200, 37 C; antibody captured on protein A/G chip, monomeric hILT4 as analyte; kinetic fit. As for the experimental part: The binding kinetics of the parent and germline reversion mutant anti-hILT4 antibodies (in the context of IgG1.3) were measured via Surface Plasmon Resonance (SPR) using a Biacore® T200 instrument. The assay temperature was 37° C. and the running buffer was PBS pH 7.4 supplemented with 0.05% Tween-20. Allanti-hILT4 antibodies were captured on a CM4 chip with pre-immobilized protein A/G (Pierce Thermo Scientific catalog number 21186). […] Monomeric human ILT4 was injected as analyte. […] The hILT4 used in this experiment, comprising the extracellular region of hILT4 linked to a His-Avi tag, consists of the following amino acid sequence: […]

Assay [2] deals with T2, human ILT4 (hILT4) expressed on cells (human, UniProt Q8N423 22-597).
T2 construct: hILT4 on transfected CHO or 293T cells, or native on human monocytes and macrophages; also called LILRB2
The assay is described as follows: flow cytometry on hILT4-transfected CHO cells, MFI (PE); EC50 from the table beside the graph; the table has no unit, the concentration axis is in ug/mL.

In assay [3] the target is T2, human ILT4 (hILT4) expressed on cells. The assay is described as follows: flow cytometry on hILT4-transfected CHO cells, PE anti-human IgG secondary, GMFI (PE); EC50 from the table below the graph; the table has no unit, the concentration axis is in ug/mL.
Assay [4] deals with T3, human LILRA5 (human, UniProt A6NI73 42-299).
T3 construct: whole, on cells; also called hLILRA5
Kind of assay: flow cytometry, 293T transfectants, antibody 20 µg/ml; stacked histograms, control: parental cells. As for the experimental part: (§1) Individual ILT family members were overexpressed in 293T cells. Each transfectant was stained with 20 μg/ml of anti-ILT4 antibodies followed by 1 μg/ml of anti-human IgG secondary mAb. Binding of the antibodies to each transfectant was measured by flow cytometry.

Assay [5] deals with T4, human LILRA2 (human, UniProt Q8N149 24-483).
T4 construct: whole, on cells; also called hLILRA2
The assay is described as above. As for the experimental part: as §1

The target in assay [6] is T5, human LILRA4 (human, UniProt P59901 24-499).
T5 construct: whole, on cells; also called hLILRA4
Described as above. As for the experimental part:
as §1

Assay [7] concerns the target T6, human ILT5 (human, UniProt O75022 24-631).
T6 construct: whole, on cells; also called hILT5; LILRB3
The assay is described as above. As for the experimental part: as §1

Assay [8] has as its target T7, human LIR8 (human, UniProt O75023 24-590).
T7 construct: whole, on cells; also called hLIR8
The description is as above. As for the experimental part: as §1

The target of assay [9] is T8, human ILT3 (human, UniProt Q8NHJ6 22-448).
T8 construct: whole, on cells; also called hILT3
The description is as above. As for the experimental part:
as §1

Assay [10] concerns the target T9, human ILT2 (human, UniProt Q8NHL6 24-650).
T9 construct: whole, on cells; also called hILT2
Described as above. As for the experimental part:
as §1

In assay [11] the target is T10, human LILRA6 (human, UniProt Q6PI73 24-481).
T10 construct: whole, on cells; also called hLILRA6
Described as above. As for the experimental part: as §1

Assay [12] deals with T2, human ILT4 (hILT4) expressed on cells. Kind of assay: flow cytometry on human monocytes of a healthy donor, directly labelled antibody, GMFI; EC50 from the table below the graph; the table has no unit, the concentration axis is in ug/mL. The source says: In FIG. 18B, monocytes selected from a normal healthy donor's peripheral blood were stained with individual anti-ILT4 antibodies conjugated to […].

Assay [13] concerns the target T11, human LILRA3 (human, UniProt Q8N6C8 24-439).
T11 construct: whole, on cells; also called hLILRA3; LIRA3
The assay is described as follows: antibody titration flow cytometry binding assay on transfected cells, nonlinear regression.

The target in assay [14] is T2, human ILT4 (hILT4) expressed on cells. The description is as above.
In assay [15] the target is T1, hILT4-His-Avi tag. The assay is described as follows: SPR Biacore T200, 37 C; antibody captured by anti-human Fc on CM4 chip, hILT4-His-Avi as analyte; 1:1 Langmuir fit. As for the experimental part: The running buffer was 10 mM HEPES pH 7.4 supplemented with 0.05% Tween-20 and 1 g/L BSA. All anti-ILT4 antibodies were captured on a CM4 chip with pre-immobilized anti-human Fc capture antibody from Southern Biotech (catalog number 2081-01). […] All data were double-referenced and fitted to a 1:1 Langmuir model with mass transport using Biacore T200 Evaluation Software version 3.1.

T1 sequence (Q8N423 other isoform, or with tags, fused parts or gaps): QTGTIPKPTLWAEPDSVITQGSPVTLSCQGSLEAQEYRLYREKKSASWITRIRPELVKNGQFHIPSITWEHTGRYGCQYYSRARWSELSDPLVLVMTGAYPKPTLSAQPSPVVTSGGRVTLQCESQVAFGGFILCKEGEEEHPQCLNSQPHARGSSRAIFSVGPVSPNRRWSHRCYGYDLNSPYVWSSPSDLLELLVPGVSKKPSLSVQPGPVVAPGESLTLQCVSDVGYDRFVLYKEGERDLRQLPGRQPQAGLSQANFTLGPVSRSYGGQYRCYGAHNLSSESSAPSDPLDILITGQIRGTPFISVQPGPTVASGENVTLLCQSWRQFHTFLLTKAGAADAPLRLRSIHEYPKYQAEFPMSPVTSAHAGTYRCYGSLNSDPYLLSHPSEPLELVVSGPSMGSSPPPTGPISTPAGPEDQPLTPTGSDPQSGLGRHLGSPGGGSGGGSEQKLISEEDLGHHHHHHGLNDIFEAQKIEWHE
T2 sequence (Q8N423 other isoform, or with tags, fused parts or gaps): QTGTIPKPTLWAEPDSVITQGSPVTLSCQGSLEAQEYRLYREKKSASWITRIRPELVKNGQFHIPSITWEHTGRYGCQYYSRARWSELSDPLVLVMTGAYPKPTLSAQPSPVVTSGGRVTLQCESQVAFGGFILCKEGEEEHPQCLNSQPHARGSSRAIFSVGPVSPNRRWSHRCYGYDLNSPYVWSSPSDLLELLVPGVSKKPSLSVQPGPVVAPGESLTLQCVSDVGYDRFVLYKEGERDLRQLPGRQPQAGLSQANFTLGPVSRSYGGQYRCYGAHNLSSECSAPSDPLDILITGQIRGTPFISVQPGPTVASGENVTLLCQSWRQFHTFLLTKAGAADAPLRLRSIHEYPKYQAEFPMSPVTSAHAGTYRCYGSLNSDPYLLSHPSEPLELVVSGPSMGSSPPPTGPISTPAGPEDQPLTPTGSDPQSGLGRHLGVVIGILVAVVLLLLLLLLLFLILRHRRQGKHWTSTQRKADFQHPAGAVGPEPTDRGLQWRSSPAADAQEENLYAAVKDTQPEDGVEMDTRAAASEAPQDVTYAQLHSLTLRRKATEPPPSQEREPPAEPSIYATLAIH
T4 sequence (Q8N149 24-483): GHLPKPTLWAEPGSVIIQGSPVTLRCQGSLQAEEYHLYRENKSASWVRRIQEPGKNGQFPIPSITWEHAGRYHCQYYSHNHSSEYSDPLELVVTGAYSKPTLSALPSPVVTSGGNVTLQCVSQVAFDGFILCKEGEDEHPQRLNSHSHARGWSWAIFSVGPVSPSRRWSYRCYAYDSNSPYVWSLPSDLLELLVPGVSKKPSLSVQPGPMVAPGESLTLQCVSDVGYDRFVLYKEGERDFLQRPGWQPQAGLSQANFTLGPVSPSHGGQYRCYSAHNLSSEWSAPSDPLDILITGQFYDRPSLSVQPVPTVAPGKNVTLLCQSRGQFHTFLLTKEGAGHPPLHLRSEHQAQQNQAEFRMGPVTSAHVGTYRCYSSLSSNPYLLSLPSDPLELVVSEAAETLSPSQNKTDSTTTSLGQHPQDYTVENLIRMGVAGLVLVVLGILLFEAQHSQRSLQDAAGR
T3 sequence (A6NI73 42-299): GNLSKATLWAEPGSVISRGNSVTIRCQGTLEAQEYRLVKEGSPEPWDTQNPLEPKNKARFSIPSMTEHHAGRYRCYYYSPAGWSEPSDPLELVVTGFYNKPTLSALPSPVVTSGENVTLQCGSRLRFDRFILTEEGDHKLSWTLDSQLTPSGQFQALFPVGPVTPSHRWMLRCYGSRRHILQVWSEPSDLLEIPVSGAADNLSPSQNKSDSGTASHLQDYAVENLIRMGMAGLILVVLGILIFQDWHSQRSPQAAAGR
T5 sequence (P59901 24-499): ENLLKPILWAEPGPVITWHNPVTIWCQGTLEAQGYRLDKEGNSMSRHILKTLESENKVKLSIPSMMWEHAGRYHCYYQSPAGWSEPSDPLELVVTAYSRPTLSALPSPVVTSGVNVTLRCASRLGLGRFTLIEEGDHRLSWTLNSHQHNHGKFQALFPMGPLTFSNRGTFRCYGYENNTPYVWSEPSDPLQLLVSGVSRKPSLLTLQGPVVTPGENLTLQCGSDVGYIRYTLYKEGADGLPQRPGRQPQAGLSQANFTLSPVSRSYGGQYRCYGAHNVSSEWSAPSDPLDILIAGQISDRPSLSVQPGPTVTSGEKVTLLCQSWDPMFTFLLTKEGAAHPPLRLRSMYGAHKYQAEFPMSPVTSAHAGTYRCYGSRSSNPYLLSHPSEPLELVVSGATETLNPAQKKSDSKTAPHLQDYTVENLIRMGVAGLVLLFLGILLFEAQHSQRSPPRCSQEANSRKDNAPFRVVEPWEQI
T9 sequence (Q8NHL6 24-650): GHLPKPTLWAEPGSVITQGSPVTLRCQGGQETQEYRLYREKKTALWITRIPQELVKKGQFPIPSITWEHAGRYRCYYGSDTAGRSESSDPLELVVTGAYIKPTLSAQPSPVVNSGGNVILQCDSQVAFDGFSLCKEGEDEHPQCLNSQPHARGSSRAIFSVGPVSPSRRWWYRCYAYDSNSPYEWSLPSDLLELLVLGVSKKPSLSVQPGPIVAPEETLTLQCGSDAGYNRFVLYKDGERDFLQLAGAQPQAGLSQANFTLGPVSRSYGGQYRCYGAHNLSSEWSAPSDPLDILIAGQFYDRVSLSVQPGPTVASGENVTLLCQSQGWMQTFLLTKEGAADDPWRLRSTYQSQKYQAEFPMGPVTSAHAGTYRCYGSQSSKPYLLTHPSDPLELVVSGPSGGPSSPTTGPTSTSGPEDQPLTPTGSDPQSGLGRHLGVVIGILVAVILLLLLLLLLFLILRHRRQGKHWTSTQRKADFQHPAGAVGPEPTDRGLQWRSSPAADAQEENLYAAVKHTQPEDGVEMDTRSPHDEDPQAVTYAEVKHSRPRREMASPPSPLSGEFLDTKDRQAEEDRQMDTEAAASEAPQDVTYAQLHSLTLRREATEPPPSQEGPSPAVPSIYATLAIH
T7 sequence (O75023 24-590): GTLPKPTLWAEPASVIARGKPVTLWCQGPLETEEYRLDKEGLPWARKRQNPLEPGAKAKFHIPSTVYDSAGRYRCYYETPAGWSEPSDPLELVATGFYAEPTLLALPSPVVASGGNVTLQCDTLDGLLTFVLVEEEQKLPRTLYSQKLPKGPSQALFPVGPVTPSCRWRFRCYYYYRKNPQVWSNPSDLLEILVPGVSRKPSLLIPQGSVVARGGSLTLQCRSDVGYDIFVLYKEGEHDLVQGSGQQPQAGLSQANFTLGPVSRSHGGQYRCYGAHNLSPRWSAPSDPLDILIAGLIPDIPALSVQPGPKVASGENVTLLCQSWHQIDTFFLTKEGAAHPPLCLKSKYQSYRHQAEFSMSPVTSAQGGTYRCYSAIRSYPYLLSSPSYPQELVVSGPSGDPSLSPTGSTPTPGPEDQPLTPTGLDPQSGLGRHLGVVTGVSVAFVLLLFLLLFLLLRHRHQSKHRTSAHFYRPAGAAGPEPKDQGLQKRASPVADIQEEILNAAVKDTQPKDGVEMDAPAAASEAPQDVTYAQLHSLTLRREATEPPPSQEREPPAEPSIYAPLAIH
T10 sequence (Q6PI73 24-481): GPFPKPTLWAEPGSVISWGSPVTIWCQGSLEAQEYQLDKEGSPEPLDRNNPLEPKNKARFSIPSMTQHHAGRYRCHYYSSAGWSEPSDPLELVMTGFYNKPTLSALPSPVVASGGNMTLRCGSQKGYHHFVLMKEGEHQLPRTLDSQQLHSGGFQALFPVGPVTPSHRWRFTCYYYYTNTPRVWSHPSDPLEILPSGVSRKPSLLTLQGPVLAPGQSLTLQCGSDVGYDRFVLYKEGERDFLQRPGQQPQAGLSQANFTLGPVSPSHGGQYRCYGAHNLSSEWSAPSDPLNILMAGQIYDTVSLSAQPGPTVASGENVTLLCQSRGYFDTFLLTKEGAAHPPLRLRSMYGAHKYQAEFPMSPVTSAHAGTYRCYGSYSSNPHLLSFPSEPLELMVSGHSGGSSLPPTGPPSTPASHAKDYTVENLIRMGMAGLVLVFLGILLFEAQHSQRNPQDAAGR
T11 sequence (Q8N6C8 24-439): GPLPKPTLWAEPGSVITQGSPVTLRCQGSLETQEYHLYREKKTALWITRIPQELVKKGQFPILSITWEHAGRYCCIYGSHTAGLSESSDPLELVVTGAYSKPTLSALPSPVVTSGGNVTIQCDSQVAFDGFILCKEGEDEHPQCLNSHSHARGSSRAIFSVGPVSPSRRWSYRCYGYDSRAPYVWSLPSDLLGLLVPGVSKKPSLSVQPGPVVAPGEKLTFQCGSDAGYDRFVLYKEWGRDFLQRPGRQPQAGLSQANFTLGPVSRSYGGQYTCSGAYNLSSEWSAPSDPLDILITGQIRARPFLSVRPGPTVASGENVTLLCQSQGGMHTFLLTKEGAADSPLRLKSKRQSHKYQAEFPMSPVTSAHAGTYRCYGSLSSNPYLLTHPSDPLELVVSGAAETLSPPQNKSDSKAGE

B1: 21D9.b.hIgG1.3 (antibody)
heavy: EVQLLESGGGLVQPGGSLRLSCATSGFTFSNYAMNWVRQAPGKGLEWISVISVSGGSTYYADSVKGRFTISRDNSKNTLYLQMNSLRAEDTAVYYCAKDYYYDSGSYYDSFFDYWGQGTLVTVSSASTKGPSVFPLAPSSKSTSGGTAALGCLVKDYFPEPVTVSWNSGALTSGVHTFPAVLQSSGLYSLSSVVTVPSSSLGTQTYICNVNHKPSNTKVDKRVEPKSCDKTHTCPPCPAPEAEGAPSVFLFPPKPKDTLMISRTPEVTCVVVDVSHEDPEVKFNWYVDGVEVHNAKTKPREEQYNSTYRVVSVLTVLHQDWLNGKEYKCKVSNKALPAPIEKTISKAKGQPREPQVYTLPPSREEMTKNQVSLTCLVKGFYPSDIAVEWESNGQPENNYKTTPPVLDSDGSFFLYSKLTVDKSRWQQGNVFSCSVMHEALHNHYTQKSLSLSPG
light: not shown
notes: Germline reversion mutant of 21D9 (VH G2V, D10G); light chain of 21D9; IgG1.3
In assay [1], B1 had a Kd of 340 pM, an app. act. of 90%, a koff of 0.0011 s⁻¹ and a kon of 3.1e+06 M⁻¹ s⁻¹.

B2: 21D9.c.hIgG1.3 (antibody, V domains shown)
VH: EVQLLESGGDLVQPGGSLRLSCAASGFTFSNYAMNWVRQAPGKGLEWISVISVSGGSTYYADSVKGRFTISRDNSKNTLYLQMNSLRAEDTAVYYCAKDYYYDSGSYYDSFFDYWGQGTLVTVSS
VL: not shown
notes: Germline reversion mutant of 21D9; light chain of 21D9; IgG1.3; also called 21D9.VH-G2V/T24A.IgG1.3
In assay [1], B2 came in with a Kd of 420 pM, an app. act. of 97%, a koff of 0.0012 s⁻¹ and a kon of 3e+06 M⁻¹ s⁻¹.

B3: 21D9.d.hIgG1.3 (antibody, V domains shown)
VH: B2 VH with A24T, I48V
VL: not shown
notes: Germline reversion mutant of 21D9; light chain of 21D9; IgG1.3; also called 21D9.VH-G2V/I48V
As to B3, in [1], binding was characterised by a dissociation constant (Kd) of 350 pM, the app. act. is 84%, the koff stood at 0.0011 s⁻¹ and the kon was 3.1e+06 M⁻¹ s⁻¹.

B4: 9C8.A6 (antibody, V domains shown)
VH: QVQLVQSGAEVKKPGASVKVSCKASGYTFTSSDINWVRQATGQGLEWMGWMNPNSGHTGYAQKFQDRVTLTRDTSISTAYMELSSLRSEDSAVYYCARGGNSIDWGFSYYGLDVWGQGTTVTVSS
VL: AIQLTQSPSSLSASVGDRVTITCRASQGISSALAWYQQKPGKAPKLLIYDASSLESGVPSRFSGSGSGTDFTLTISSLQPEDFATYYCQQFNSYPFTFGPGTKVDIK
notes: Hybridoma antibody (human IgG / human kappa from transgenic mice), tested as hybridoma supernatant
On to B4, for which the EC50 in assay [2] is 0.189 µg/mL.

B5: 21A5.a.IgG1.3 (antibody, V domains shown)
VH: QVQLVQSGAEVKKPGASVKVSCKASGYTFTDYYLHWVRQAPGQGLEWMGIFHPSGDITSSAQNFQGRVTMTRDTSTSTVYMELSSLRSEDTAVYYCARGGVLRYLDWSHAFDIWGQGTMVTVSS
VL: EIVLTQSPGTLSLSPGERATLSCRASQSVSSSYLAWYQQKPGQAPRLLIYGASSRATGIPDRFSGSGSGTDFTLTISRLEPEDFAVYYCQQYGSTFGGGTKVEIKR
notes: Germline reversion mutant of 21A5 (VH I70T, VK A3V; 21A5.1 light chain); IgG1.3; also called ILT4.9.IgG1.3; ILT4.9
Regarding B5, the 50% effective concentration (EC50) in [3] was determined as 0.0627 µg/mL; in [12] it was 0.395 µg/mL; in [13], 52.9 µg/mL; in assay [14], 0.085 µg/mL. The binding result in assay [4], in [5], in assay [6], in assay [7], in [8] and in assay [9] was “no binding (tested: 20 µg/ml)” in each case. Also, the binding result in assay [10] and in assay [11] was “no binding (tested: 20 µg/ml)” in each case. The Kd in [1] was 170 pM; in assay [15] it was 36 pM. In addition, the app. act. worked out at 98% in assay [1] and 100% in assay [15]. Besides, the figures for the koff in [1] and in assay [15] were 0.00019 s⁻¹ and 1.7e-05 s⁻¹, respectively. For the same molecule, the results for the kon in assay [1] and in assay [15] were 1.1e+06 M⁻¹ s⁻¹ and 490000 M⁻¹ s⁻¹, respectively.

B6: 9G4 (antibody, V domains shown)
VH: QVQLQESGPGLVKPSETLSLTCTVSGGSISSYYWNWIRQPPGKGLEWLGYIYYSGSTKYNPSLKSRVTISVDTSKNQFSLKLSSVTAADTAVYYCASSGWYYFDYWGQGTLVTVSS
VL: EIVLTQSPATLSLSPGERATLSCRASQSVSSYLAWYQQKPGQAPRLLIYDASNRATGIPARFSGSGSGTDFTLTISSLEPEDFAGYYCQQRSYWPWTFGQGTKVEIK
notes: Hybridoma antibody (human IgG / human kappa), tested as hybridoma supernatant; also called 9G4 (hybridoma)
On to B6, for which a half-maximal response in assay [2] (EC50) required 2.84 µg/mL.

B7: 24E5.A7 (antibody, V domains shown)
VH: EVQLLESGGGLVQPGGSLRLSCAASGFTFSSYVMSWVRQAPGKGLEWVSGISGSGGSTYYADSVKGRFTISRDNSKNTLYLQMNSLRAEDTAVYYCAKDQDIIAAYYFVYWGQGTLVTVSS
VL: DIQMTQSPSSLSASVGDRVTITCRASQGISSWLAWYQQKPEKAPKSLIYAASSLQSGVPSRFSGSGSGTDFTLTISSLQPEDFATYYCQQYNSYPLTFGGGTKVEIK
notes: Hybridoma antibody (human IgG / human kappa), tested as hybridoma supernatant
The molecule B7 displayed an EC50 in [2] of 0.268 µg/mL.

B8: 21D9.H11 (antibody, V domains shown)
VH: B2 VH with V2G, A24T
VL: not shown
notes: Hybridoma antibody (human IgG / human kappa), tested as hybridoma supernatant; also called 21D9 (hybridoma)
For B8, a half-maximal effect in assay [2] (EC50) was put at 0.0174 µg/mL.

B9: 2E5.A11 (antibody, V domains shown)
VH: QVQLVESGGGVVQPGRSLRLSCTASGFTFSNYGMHWVRQAPGKGLEWVAVIWYDGSNEYYAESVKGRLTISRDNSKNTLYLQVNSLRAEDTAVYYCARDPFYGSGNYFDYWGQGTLVTVSS
VL: not shown
notes: as for B7
B9: it took 0.0986 µg/mL to reach a half-maximal effect in assay [2] (EC50).

B10: 10F10.4 (antibody, human IgG1, kappa, V domains shown)
VH: QVQLVESGGGVVQPGRSLRLSCAASGFTFSSYAMHWVRQAPGKGLEWVAIISYDEYNKYYADSVKGRFTISRDNSKNTLYLQMNSLRAEDTAVYYCAREWVGIRYWGQGTLVTVSS
VL: AIQLTQSPSSLSASVGDRVTITCRASQGISSALAWFQQKPGKAPKLLIYDASSLESGVPSRFSGSGSGTDFTLTISSLQPEDFATYYCQQFNSYPITFGQGTRLEIKR
notes: 10F10 with only the light chain reversion T63S
In [15], B10 displayed a Kd of 22000 pM, an app. act. of 117%, a koff of 0.027 s⁻¹ and a kon of 1.2e+06 M⁻¹ s⁻¹.
